Data taken from patent US20150203575A1 (Genentech, published 2015).

How the values were obtained:
[1] = target: T1, mouse CD99 expressed on 293T cells (mouse, UniProt Q8VCN6 29-175, sialylated O-glycans at Thr-45 and Thr-50 (cited as relevant for PILRα recognition)); assay: flow cytometry, transfected 293T cells, 50 µg/ml; 293T-Neo: 1.1
T1 construct: whole, on cells; also called mCD99; mCD99 transfectants
T1 sequence (looked up): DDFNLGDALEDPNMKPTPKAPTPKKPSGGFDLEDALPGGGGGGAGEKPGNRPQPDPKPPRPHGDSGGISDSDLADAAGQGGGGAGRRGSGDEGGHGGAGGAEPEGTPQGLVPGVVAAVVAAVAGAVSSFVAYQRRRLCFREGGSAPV

[2] = target: T2, human NPDC1 expressed on cells (human, UniProt Q9NQX5 35-325); assay: as above
T2 construct: also called hNPDC1; hNPCD1
T2 sequence: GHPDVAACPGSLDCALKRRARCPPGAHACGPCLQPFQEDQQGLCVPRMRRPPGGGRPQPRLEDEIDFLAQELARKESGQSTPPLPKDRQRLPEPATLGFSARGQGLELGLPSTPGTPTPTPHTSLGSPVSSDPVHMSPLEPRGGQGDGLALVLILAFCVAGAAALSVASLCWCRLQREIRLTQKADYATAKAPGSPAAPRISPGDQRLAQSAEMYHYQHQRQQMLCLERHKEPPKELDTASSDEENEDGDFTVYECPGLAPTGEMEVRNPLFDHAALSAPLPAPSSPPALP

[3] = target: T3, human COLEC12 expressed on cells (human, UniProt Q5KU26 1-742); assay: as above
T3 construct: also called hCOLEC12; C-terminal his tagged hCOLEC12
T3 sequence (Q5KU26 whole entry S522P/G606S): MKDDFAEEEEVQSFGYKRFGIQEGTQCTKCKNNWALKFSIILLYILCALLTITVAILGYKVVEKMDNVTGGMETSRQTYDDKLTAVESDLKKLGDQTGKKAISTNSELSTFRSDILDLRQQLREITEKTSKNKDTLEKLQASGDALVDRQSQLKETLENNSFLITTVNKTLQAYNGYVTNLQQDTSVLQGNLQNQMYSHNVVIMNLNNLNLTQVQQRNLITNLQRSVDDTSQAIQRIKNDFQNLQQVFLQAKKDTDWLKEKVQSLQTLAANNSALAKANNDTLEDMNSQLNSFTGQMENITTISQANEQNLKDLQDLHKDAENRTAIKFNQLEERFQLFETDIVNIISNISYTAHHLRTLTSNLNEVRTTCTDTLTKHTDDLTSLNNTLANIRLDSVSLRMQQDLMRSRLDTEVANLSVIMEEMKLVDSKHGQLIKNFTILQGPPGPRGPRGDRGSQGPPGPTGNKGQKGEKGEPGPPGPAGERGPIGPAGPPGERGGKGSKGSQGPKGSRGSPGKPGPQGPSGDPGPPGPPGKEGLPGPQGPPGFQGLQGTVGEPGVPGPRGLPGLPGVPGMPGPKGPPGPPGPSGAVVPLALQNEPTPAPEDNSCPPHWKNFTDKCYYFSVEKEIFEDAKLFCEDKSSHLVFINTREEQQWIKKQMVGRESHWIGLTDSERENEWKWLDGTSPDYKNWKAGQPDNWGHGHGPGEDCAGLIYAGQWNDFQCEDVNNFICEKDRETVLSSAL

[4] = target: T1, mouse CD99 expressed on 293T cells; assay: flow cytometry, transfected 293T cells, ligand-expressing cells gated
[5] = target: T2, human NPDC1 expressed on cells; assay: as above
[6] = target: T3, human COLEC12 expressed on cells; assay: as above
[7] = target: T4, HSV1 glycoprotein B expressed on 293T cells (herpes simplex virus type 1, UniProt P10211 31-904); assay: as above
T4 construct: whole, on cells; also called HSV-1 gB; HSV1 gB

[8] = target: T2, human NPDC1 expressed on cells; assay: AP staining of transfected COS7 cells with AP fusion supernatant
[9] = target: T3, human COLEC12 expressed on cells; assay: as above
[10] = target: T5, BR3 expressed on cells (human, UniProt Q96RJ3 1-184); assay: cDNA expression library screen with PILRα-AP supernatant on COS7 transfectants; positive clones further analysed by FACS
T5 construct: Clone of the Origene human cDNA library
T5 sequence: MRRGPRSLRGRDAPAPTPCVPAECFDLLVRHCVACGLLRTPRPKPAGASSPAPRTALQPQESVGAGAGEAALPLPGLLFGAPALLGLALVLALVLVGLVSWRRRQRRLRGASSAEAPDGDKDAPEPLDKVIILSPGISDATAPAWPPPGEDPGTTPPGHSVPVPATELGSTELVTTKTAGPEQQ

[11] = target: T6, FceRII expressed on cells (human, UniProt P06734 1-321); assay: as above
T6 construct: Clone of the Origene human cDNA library; also called FcRII
T6 sequence: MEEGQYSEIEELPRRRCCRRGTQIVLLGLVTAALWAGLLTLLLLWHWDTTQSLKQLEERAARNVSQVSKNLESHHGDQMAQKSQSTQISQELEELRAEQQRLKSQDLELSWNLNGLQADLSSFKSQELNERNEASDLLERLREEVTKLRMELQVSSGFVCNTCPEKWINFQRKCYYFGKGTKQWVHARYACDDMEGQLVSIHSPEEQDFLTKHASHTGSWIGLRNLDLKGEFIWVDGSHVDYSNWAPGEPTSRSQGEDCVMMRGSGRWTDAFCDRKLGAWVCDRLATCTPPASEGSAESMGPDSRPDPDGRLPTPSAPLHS

[12] = target: T7, LRRTM4 expressed on cells (human, UniProt Q86VH4 31-590); assay: as above
T7 construct: Clone of the Origene human cDNA library; also called Leucine rich repeat transmembrane neuronal 4
T7 sequence (Q86VH4 31-590 limits assumed): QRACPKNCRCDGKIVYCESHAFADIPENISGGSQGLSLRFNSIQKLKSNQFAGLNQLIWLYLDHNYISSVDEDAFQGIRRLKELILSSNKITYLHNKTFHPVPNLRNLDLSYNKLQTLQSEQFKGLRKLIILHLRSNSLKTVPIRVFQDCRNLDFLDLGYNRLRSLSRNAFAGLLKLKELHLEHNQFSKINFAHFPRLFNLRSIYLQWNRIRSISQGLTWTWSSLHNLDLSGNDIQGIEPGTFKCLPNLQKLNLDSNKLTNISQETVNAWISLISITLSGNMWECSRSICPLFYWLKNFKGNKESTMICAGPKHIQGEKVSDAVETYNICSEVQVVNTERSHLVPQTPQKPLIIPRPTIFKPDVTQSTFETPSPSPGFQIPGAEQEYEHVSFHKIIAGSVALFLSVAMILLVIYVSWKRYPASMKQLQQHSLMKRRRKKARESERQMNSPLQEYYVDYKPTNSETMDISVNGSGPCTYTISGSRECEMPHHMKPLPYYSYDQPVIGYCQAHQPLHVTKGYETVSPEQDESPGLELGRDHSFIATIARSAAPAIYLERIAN

[13] = target: T8, APLP1 expressed on cells (human, UniProt P51693 39-650); assay: as above
T8 construct: Clone of the Origene human cDNA library; also called Amyloid beta precursor like protein 1
T8 sequence: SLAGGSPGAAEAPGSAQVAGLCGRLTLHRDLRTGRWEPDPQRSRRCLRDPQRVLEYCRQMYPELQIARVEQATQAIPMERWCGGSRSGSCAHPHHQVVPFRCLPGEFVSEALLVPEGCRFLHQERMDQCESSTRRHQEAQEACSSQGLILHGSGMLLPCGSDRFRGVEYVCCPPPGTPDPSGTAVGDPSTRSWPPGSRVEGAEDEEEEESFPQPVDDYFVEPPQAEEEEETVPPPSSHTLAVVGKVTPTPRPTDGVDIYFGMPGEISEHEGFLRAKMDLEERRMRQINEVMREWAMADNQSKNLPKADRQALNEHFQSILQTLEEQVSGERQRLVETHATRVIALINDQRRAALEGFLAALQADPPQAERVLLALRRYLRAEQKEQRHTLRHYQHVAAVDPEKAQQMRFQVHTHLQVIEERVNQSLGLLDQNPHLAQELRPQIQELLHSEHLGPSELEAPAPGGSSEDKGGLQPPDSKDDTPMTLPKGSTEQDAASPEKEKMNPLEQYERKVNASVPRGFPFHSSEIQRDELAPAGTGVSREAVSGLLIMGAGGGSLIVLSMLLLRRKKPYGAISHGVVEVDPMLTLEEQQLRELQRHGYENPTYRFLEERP

B1: mPILRα-Fc (Fc fusion)
chain: not shown
notes: also called mouse PILRα-Fc; WT mPILRα-Fc; not shown: Fc of mouse IgG2a (PILRα-mIgG2a, called PILRα-Fc)
For B1, the “% cells in lower right quadrant” value [1] was 46.4%, the “% cells in lower right quadrant” value [2] was 40.9% and the “% cells in lower right quadrant” value [3] was 10.1%.

B2: mPILRαR133A-Fc (Fc fusion)
chain: not shown
notes: Arg mutant of mPILRα-Fc; also called mPILRα133A-Fc; variant mPILRα (R133A); not shown: Fc of mouse IgG2a (PILRα-mIgG2a, called PILRα-Fc)
B2: no binding [4]; no binding [5]; no binding [6]. B2: no binding [7].

B3: hPILRα-AP (other)
chain: QPSGSTGSGPSYLYGVTQPKHLSASMGGSVEIPFSFYYPWELATAPDVRISWRRGHFHRQSFYSTRPPSIHKDYVNRLFLNWTEGQKSGFLRISNLQKQDQSVYFCRVELDTRSSGRQQWQSIEGTKLSITQAVTTTTQRPSSMTTTWRLSSTTTTTGLRVTQGKRRSDSWHISLET
notes: Used as culture supernatant; also called human PILRα-AP; Alkaline phosphatase (AP)-tagged PILRα construct; not shown: C-terminal alkaline phosphatase (AP) tag
B3: binds [8]; binds [9]; binds [10]. B3: binds [11]; binds [12]; binds [13].
